Experimental data from patent US20110217291A1.
One block for each binder: values may come before it.

Assays:
[1] = biological target: IgG of IgG Sepharose 6 Fast Flow resin (GE Healthcare); experiment: batch binding of 293F conditioned media to IgG Sepharose, Western blot quantitation, n=2
[2] = biological target: IgG of IgG Sepharose 6 Fast Flow resin (GE Healthcare); experiment: IgG-Sepharose column, 24 h CHO conditioned media, Western blot

percent of total expressed in IgG Sepharose flow-through (aggregate amount) [1]: 36%
percent of total expressed recovered from IgG resin [1]: 82%
percent of total applied bound to IgG-Sepharose [2]: 53%
percent of total applied in the wash (unbound) [2]: 47%
B1: FcγRIIIA/RIA-CH6 (soluble hybrid receptor: first Ig domain of FcγRIIIA followed by second and third Ig domains of FcγRIA, C-terminal six His tag) (receptor)
chain: EDLPKAVVFLEPQWYRVLEKDSVTLKCQGAYSPEDNSTQWFHNESLISSQASSYFIDAATVDDSGEYRCQTNLSTLSDPVQLEVHIGWLLLQVSSRVFTEGEPLALRCHAWKDKLVYNVLYYRNGKAFKFFHWNSNLTILKTNISHNGTYHCSGMGKHRYTSAGISVTVKELFPAPVLNASVTSPLLEGNLVTLSCETKLLLQRPGLQLYFSFYMGSKTLRGRNTSSEYQILTARREDSGLYWCEAATEDGNVLKRSPELELQVLGGSGGHHHHHH

percent of total expressed in IgG Sepharose flow-through (aggregate amount) [1]: 14.2%
percent of total expressed recovered from IgG resin [1]: 40%
B2: FcγRIIA/RIA-CH6 (soluble hybrid receptor: first Ig domain of FcγRIIA followed by second and third Ig domains of FcγRIA, C-terminal six His tag) (receptor)
chain: AAPPKAVLKLEPPWINVLQEDSVTLTCQGARSPESDSIQWFHNGNLIPTHTQPSYRFKANNNDSGEYTCQTGQTSLSDPVHLTVLSEWLLLQVSSRVFTEGEPLALRCHAWKDKLVYNVLYYRNGKAFKFFHWNSNLTILKTNISHNGTYHCSGMGKHRYTSAGISVTVKELFPAPVLNASVTSPLLEGNLVTLSCETKLLLQRPGLQLYFSFYMGSKTLRGRNTSSEYQILTARREDSGLYWCEAATEDGNVLKRSPELELQVLGGSGGHHHHHH
